Substrate in the series: CC(C)CCC[C@@H](C)[C@H]1CC[C@H]2[C@@H]3CC=C4C[C@@H](O)CC[C@]4(C)[C@H]3CC[C@]12C
Nature of the series: purified protein. The series is classed as biochemical, Streptomyces sp. SA-COO. As to conditions: 0-1 mM cholesterol, 0.1 M potassium phosphate pH 7, 25 °C.

B1: ChOA (cholesterol oxidase from Streptomyces sp. SA-COO) (Streptomyces sp. SA-COO) (protein)
chain: DNGGYVPAVVIGTGYGAAVSALRLGEAGVQTLMLEMGQLWNQPGPDGNIFCGMLNPDKRSSWFKNRTEAPLGSFLWLDVVNRNIDPYAGVLDRVNYDQMSVYVGRGVGGGSLVNGGMAVEPKRSYFEEILPRVDSSEMYDRYFPRANSMLRVNHIDTKWFEDTEWYKFARVSREQAGKAGLGTVFVPNVYDFGYMQREAAGEVPKSALATEVIYGNNHGKQSLDKTYLAAALGTGKVTIQTLHQVKTIRQTKDGGYALTVEQKDTDGKLLATKEISCRYLFLGAGSLGSTELLVRARDTGTLPNLNSEVGAGWGPNGNIMTARANHMWNPTGAHQSSIPALGIDAWDNSDSSVFAEIAPMPAGLETWVSLYLAITKNPQRGTFVYDAATDRAKLNWTRDQNAPAVNAAKALFDRINKANGTIYRYDLFGTQLKAFADDFCYHPLGGCVLGKATDDYGRVAGYKNLYVTDGSLIPGSVGVNPFVTITALAERNVERIIKQDVTAS
Regarding B1, the Km turned out to be 13 µM.

In general, Km refers to the concentration of substrate that gives half-maximal velocity.

The values are drawn from publication PMC6232189, “Expression optimization of recombinant cholesterol oxidase in Escherichia coli and its purification and characterization” (AMB Express, 2018).
